Data reported in patent US20250376498A1, “FUSION PROTEINS COMPRISING AN IMPROVED GLP-1 RECEPTOR AGONIST AND USES THEREOF” (Guangzhou Innogen Pharmaceutical Group Co., Ltd., priority 2022, published 2025).
“And” between values parts separate entries of the source, which are not always exact repeats. Equal values may be shown once.

Test system: NASH Rhesus monkeys
Assay: NASH Rhesus monkeys, liver biopsy histology (NAS and fibrosis scores)
Assay type: in vivo
Parameters: key to Fibrosis score: 0: No fibrosis observed; 1a: Mild perisinus fibrosis in zone 3; 1b: Moderate sinus fibrosis in zone 3; 1c: Periportal fibrosis; 2: Perisinus and periportal fibrosis; 3: Bridging fibrosis; 4: Cirrhosis; key to NAS Score: NAFLD activity score (NAS) from steatosis, inflammation, ballooning grades
Conditions: for Fibrosis score / NAS Score / Steatosis score: individual animals
Description: Amount of specimens collected: ≤2 needles, each needle with a specimen length≤1.5 cm, and the total cumulative specimen length≤3 cm.
Approximately 2 cm of the collected tissue was immediately placed in 4% buffered formalin at room temperature and fixed for at least 24 hours. After appropriate modifications, dehydration, embedding, sectioning, HE staining, and Masson staining were performed.
Tissue sections were stained with H&E and Masson stains. Pathological slides were evaluated by a pathologist according to the diagnostic and treatment guidelines for non-alcoholic fatty liver disease (NAFLD) jointly drafted by the American Association for the Study of Liver Diseases (AASLD), the American College of Gastroenterology (ACG), and the American Gastroenterological Association (AGA). The diagnostic criteria can be found in Table 2 and Table 3.
After adequate fixation of the liver biopsy specimens, they were dehydrated, infiltrated with paraffin, embedded, and sectioned (5 μm) directly.
Routine deparaffinization of the sections was performed. The sections were sequentially immersed in 100% ethanol I, 100% ethanol II, 95%, 85%, and 75% ethanol for 3 minutes each. They were then rinsed with tap water for 3 minutes, stained with hematoxylin-eosin (HE) staining solution for 12 minutes, rinsed with tap water for 5 minutes, and stained with eosin Y solution (aqueous) for 3 minutes. Dehydration was carried out rapidly with 95% ethanol, followed by two rounds of dehydration with absolute ethanol for 2-5 minutes each. The sections were then cleared with xylene twice for 10 minutes each. Neutral mounting medium was applied, and microscopic examination was performed.
Routine deparaffinization of the sections was performed. The sections were stained with Weigert's iron hematoxylin for 5-7 minutes, and simultaneously, weak acid working solution was prepared by mixing distilled water and weak acid solution in a ratio of 2:1. The sections were rinsed with weak acid working solution for 1 minute. After rinsing with phosphomolybdic acid solution for 1-2 minutes, the sections were directly placed in aniline blue staining solution for 1-2 minutes, followed by rinsing with the prepared weak acid working solution for 1 minute. Dehydration was carried out rapidly with 95% ethanol, followed by two rounds of dehydration with absolute ethanol for 2-5 minutes each. The sections were then cleared with xylene twice for 10 minutes each. Neutral mounting medium was applied, and microscopic examination was performed.
The sections were observed under a microscope (with a digital imaging system), and pathological diagnosis and photography were performed. Based on the histopathological diagnosis, the HE and Masson results were scored according to the scoring criteria for non-alcoholic fatty liver disease activity score (NAS, Table 8) and liver fibrosis staging (Table 9).
Fifteen Rhesus monkeys were divided into 3 groups, with 5 monkeys in each group. They received subcutaneous injections of 0 (solvent control, placebo control group), 0.050, or 0.150 mg/kg of YN-011 once a week for 13 weeks (QW). The 0.150 mg/kg YN-011 group received adaptive dosing (0.1 mg/kg for the first dose, followed by 0.150 mg/kg for the remaining 12 doses).
To investigate whether YN-011 treatment led to histological improvements in the liver, liver biopsy specimens were collected from all Rhesus monkeys before the first injection and on day 89 after the first injection. Liver slices were stained with HE and Masson stains for histological analysis. The degrees of steatosis, inflammation, hepatocyte ballooning, and fibrosis were scored according to the standards for NAFLD activity and NASH progression.

[1] = 50 μg/kg group, Day 89 post-injection
[2] = 150 μg/kg group, Day 89 post-injection

B1: YN-011: GLP-1 fusion protein of SEQ ID NO: 7: GLP-1 (A8G, G22E, R36G), linker peptide and IgG2/Fc domain (C222S, A330S, P331S) (protein)
chain: HGEGTFTSDVSSYLEEQAAKEFIAWLVKGGGSSGAPPPSGGGGSERKSCVECPPCPAPPVAGPSVFLFPPKPKDTLMISRTPEVTCVVVDVSHEDPEVQFNWYVDGVEVHNAKTKPREEQFNSTFRVVSVLTVVHQDWLNGKEYKCKVSNKGLPSSIEKTISKTKGQPREPQVYTLPPSREEMTKNQVSLTCLVKGFYPSDIAVEWESNGQPENNYKTTPPMLDSDGSFFLYSKLTVDKSRWQQGNVFSCSVMHEALHNHYTQKSLSLSPG
Fibrosis score (50 μg/kg group, Baseline): 1a (2×) and 1c (2×) and 0-1a
NAS Score (50 μg/kg group, Baseline): 3 (2×) and 4 (3×)
Steatosis score (50 μg/kg group, Baseline): 1 (5%~33%) (4×) and 2 (34%~66%)
Fibrosis score [1]: 1a (2×) and 0~1a (3×)
NAS Score [1]: 2 (3×) and 1 (2×)
Steatosis score [1]: 0 (<5%) (4×) and 1 (5%~33%)
Fibrosis score (150 μg/kg group, Baseline): 1a (2×) and 1b (2×) and 0~1a
NAS Score (150 μg/kg group, Baseline): 3 (2×) and 4 (3×)
Steatosis score (150 μg/kg group, Baseline): 2 (34%~66%) (4×) and 3 (>66%)
Fibrosis score [2]: 1a (2×) and 1b and 0~1a (2×)
NAS Score [2]: 1 (3×) and 2 (2×)
Steatosis score [2]: 1 (5%~33%) (3×) and 0 (<5%) (2×)
NAS and liver fibrosis scores (liver biopsy) (NASH Rhesus monkeys treated with YN-011): reduction in both NAS and liver fibrosis scores
